Data set [1] has as its target Hfq-75 (Escherichia coli, UniProt P0A6X3 1-75, del76-102). The data set can be described thus: EMSA. Background: A gel shift assay detects complexes by their altered migration in electrophoresis.
The target in data set [2] is Hfq-65 (Escherichia coli, UniProt P0A6X3 1-65, del66-102). The data set can be described thus: EMSA.

From article PMC3072145 come the findings set out here.

B1: rA18 (ssRNA)
RNA: AAAAAAAAAAAAAAAAAA
As for B1, the binding result in data set [1] and in data set [2] was “binds” each time.
